In the RNAGym collection of RNA variant scans (doi:10.1073/pnas.2313332121):

B1: TPR t1 (parent)
chain: GACCAAUCUGCCCUCAGAGCUCGAGAACAUCUUCGGAUGCAGAGGAGGCAGGCUUCGGUGGCGCGAUAGCGCCAACGUCCUCAACCUCCAAUGCAUCCCACCACAUGAUGAUGCCUGAAGAGCCUUGGUUUUUUG

Variants of: B1
Assay: polymerase ribozyme fitness, log enrichment relative to wild type (log ratio); higher = more active; in vitro selection for triplet polymerase activity
Outline: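 Mutant libraries of each subunit of a heterodimeric triplet polymerase ribozyme were built by PCR and transcribed. Each library went through one round of in vitro selection in triplicate: annealing with biotinylated primer, partner subunit and triplets, frozen incubation at −7 °C, gel excision of extended constructs, streptavidin-bead capture and RT-PCR. Input and output libraries were Illumina-sequenced; only genotypes with ≥10 input reads and ≥1 read per output were kept. Fitness is log2(genotype enrichment/wild-type enrichment), using inverse-variance-weighted replicate averages.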

Variant	polymerase ribozyme fitness (log ratio)
GCCCAAUCUGCCCUCAGAGCUCGAGAACAUCUUCGGAUGCAGAGGAGGCAGGCUUCGGUGGCGCGAUAGCGCCAACGUCCUCAACCUCCAAUGCAUCCCACCACAUGAUGAUGCCUGAAGAGCAUUGGUUUUUUG [A2C C124A]	0.652
GCCCAAUCUGCCCUCAGAGAUCGAGAACAUCUUCGGAUGCAGAGGAGGCAGGCUUCGGUGGCGCGAUAGCGCCAACGUUCUCAACCUCCAAUGCAUCCCACCACAUGAUGAUGCCUGAAGAUCCGUGGUUUUUUG [A2C C20A C79U G122U U125G]	-3.43
GCCCAAUCUGCCCUCAGAGCUCGAGAACAUCUUCGGAUGCAGAGGAGGCAGGCUUCGGUGGUGCGAUAGCGCCAUCGUCCUCAACCUCCAAUGCAUCCCACCACAUGAUAAUGCCUGAAGAGCCUUGGUUUUUUG [A2C C62U A75U G110A]	-4.14
GCCCAAUCUGCCCUCAGAGCUCGAGAACAUCUUCGGAUGCAGAGGAGGCAGACUUCGGUGGCGCGAUAGCGCCAACGUACUCAACCUCCAAUGCUUCCCACCACAUGAUGAUGCCUGAAGAGUCUUGGUUUUUUA [A2C G52A C79A A95U C123U G135A]	-1.79
GCCCAAUCUGCCCUCAGAGCUCGAGAACAUCUUCGGAUGCAGAGGAGGCAGGCUUUGGUGGCGCGAUAGCGCCAACGUCCUCAACCUCCAAUGCAUCCCACCACAUGAUGAUGCCUGAAGAGCCUUGGUUUUUUG [A2C C56U]	-0.967
GCCCAAUCUGCCCUCAGAGCUCGAGAACAUGUUCGGAUGCAGAGGAGGCAGGCUUCGGUGGCGCGAUAGCGCCAACGUUCUCAACCUCCAAUGCAUCCCACCACAUGAUGAUGCCUUAAGAGCCUAGGUUUUUUG [A2C C31G C79U G117U U126A]	-4.9
GCCCAAUCUGCCCUCAGAGCUCGAGAACAUCUUCGGAUGGAGAGGAGGCAGGCUUCGGUGGCGCGAUAGCGCCAACGUCCUCAACCUCCAAUGCAUCCCACCACAUGAUGAUGCCUGAAGAGCCUUGGUUUUUUG [A2C C40G]	-2.5
GCCCAAUCUGCCCUCAGAGCUCGAGAACAUCUUCGGAUGCAGAAGAGGCAGGCUUCGGUGGCGCGAUAGCGCCAACGUCCUCAACCUCCAAUGCAUCCCACCACAUGAUGAUACCUGAAGAGCCUUGGUUUUUUG [A2C G44A G113A]	-4.5
GCCCAAUCUGCCCUCAGAGCUCGAGAACAUCUUCGGAUGCAGAGGAGGCAGGCUUCGGUGGCGCGAUAGCGCCAACGUCCUCAACCUCCAAUGCAUCCCACCACAUGAUGAUGCCUAAAGAGCCUUGGUUUUUUG [A2C G117A]	-3
GCCCAAUCUGCCCUCAGAGCUCGAGAACAUCUUCGGAUGCAGAGAAGGCAGGCUUCAGUGGCGCGAUAGCGCCAACGUCCUCAACCUCCAAUGCAUCCCACCACAUGAUGAUGUCUGAAGAGCUUUCGUUUUUUG [A2C G45A G57A C114U C124U G127C]	-5.9
GCCCAAUCUGCCCUCAGAGCUCGAGAACAUCUUCGGAUGCAGAGGAGGCAGGCUUCGGUGGCGCGAUAGCGACAACGUCCUCAACCUCCAAUGCAUCCCACCACAUGAUUAUGCCUGAAGAGCCUUGGUUUUUUG [A2C C72A G110U]	-4.2
GCCCAAUCGGCCCUCAGAGCUCGAGAACAUCUUCGGAUGCAGAGGAGGCAGGCUUCGGUGUCGCGAUAGCGCCAACGUCCUCAACCUCCAAUGCAUCCCACCACAUGAUAAUGCCUGAAGAGCCUUGGUUUUUUG [A2C U9G G61U G110A]	-2.69
GCCCAAUCUGCCCUCAGAGCUCGAGAACAUCUUCGGAUGCAGAGGAGGCAGGCUUCGGUGGCGCGAUAGCGUCAACGUCCUCAACCUCCAAUGCAUCCCACCACAUGAUGAUGCCUGAAUAGCCUUGGUUUUUUG [A2C C72U G120U]	-2.42
GCCCAAUCUGCCGUUAGAGCUCGAGAACAUCUUCGGAUGCAGAGGAGGCAGGCUUCGGUGGCGCGAUAGCGUCAACGUCCUCAACCUCCAAUGCAUCCCACCACAUGAUGAUGCCUGAAGAGCCUUGGUUUUUUG [A2C C13G C15U C72U]	-4.37
GCCCAAUCUGCCCUCAGAGCUCGAGAACAUCUUCGGAUGCAGAGGAGGCAGGCUUCGGUGGCGCGAUAGCGCCAACGUCCUCAACCUCCAAUGCAUCCCACCACAUGAUGAUGCCUCAAGAGCCUUGGUUCUCUG [A2C G117C U131C U133C]	-4.66
GCCCAAUCUGCCCUCAGAGCUCGAGAACAUCUUCGGAUGCAGAAGAGGCAGGCUUCGGAGGCGCGAUAGCGCCAACGUCCUCAACCUCCAAUGCAACCCACCACAUGAUGAAGCCUGAAGAGCCUUGGAUUUUUG [A2C G44A U59A U96A U112A U129A]	-2.9
GCCCAAUCUUCCCUCAGAGCUCGAGAACAUCUUCGGCUGCAGAGGAGGCAGGCUUCGGUGGCGUGAUAGCGCCAACGUCCUCAACCUCCAAUGCAUCCCACCACAUGAUGACGCCUGAAGAGCCUUGGUUUUUUG [A2C G10U A37C C64U U112C]	-1.73
GCCCAAUCUGCCCUCAGAGCUCGAGAACAUCUUCGGAUGCAGAGGAGGCAGGUUUCGGUGGCGCGAUAGCGCCAACGUCCGCAACCUCCAAUGCAUCCCACCACAUGAUGAUGCCUGAAGAGCCUUGGUUUUUUG [A2C C53U U81G]	-4.15
GCCCAAUCUGCCCUCAGAGCUCGAGAACAUCUUCGGAUGCAGAGGAGGCAGGCUUCGGUGGCGCGAUAGCGCCAACGUCCUCAACCUCCAAUGCAUCCCACCACAUGAUGAUGCUUGAAGAGCCUUGGUUUUUUG [A2C C115U]	-2.66
GCCCAAUCUGCCCUCAGAGCUCGAGAACAUCUUCGGAUGCAGAGGAGGCAGGCUUCGGUGGCGCGAUAGCACCAACGUCCUCAACCUCCAAUGCAUCCCACCACAUGAUGAGGCCUGAAGAGCCUUGGUUUUUUG [A2C G71A U112G]	-2.44
GCCCAAUCUGCCCUCAGAGCUCGAGAACAUCUUCGGAUGCAGAGGAGGCAGGCUUCGGUGGUGCGAUAGCGCCAACGUCCUCAACCUCCAAUGCAUCCCACCACAUGAUGAUGCCUGAAGAGCCUUGGUUUUUUG [A2C C62U]	-2.03
